Measured values: publication PMC2756588

T1: Abp1, P15891
T1 sequence (P15891 535-592, looked up): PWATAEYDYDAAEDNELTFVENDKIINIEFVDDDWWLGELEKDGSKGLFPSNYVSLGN

T2: Pex13, P80667
T2 sequence (P80667 295-386, looked up): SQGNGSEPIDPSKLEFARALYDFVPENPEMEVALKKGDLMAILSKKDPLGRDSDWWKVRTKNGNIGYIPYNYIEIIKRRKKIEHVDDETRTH

T3: Boi2, P39969
T3 sequence (P39969 32-116, looked up): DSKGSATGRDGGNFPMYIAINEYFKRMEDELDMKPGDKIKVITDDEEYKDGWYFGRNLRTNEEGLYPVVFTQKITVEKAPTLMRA

T4: Sla1-3, P32790
T4 sequence (P32790 344-424, looked up): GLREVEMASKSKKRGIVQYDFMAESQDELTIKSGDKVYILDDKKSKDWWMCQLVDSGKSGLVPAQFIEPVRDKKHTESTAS

T5: Bbc1, P47068
T5 sequence (P47068 1-78, looked up): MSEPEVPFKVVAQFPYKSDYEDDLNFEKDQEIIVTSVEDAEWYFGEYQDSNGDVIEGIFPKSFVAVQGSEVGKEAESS

T6: Cdc25, P04821
T6 sequence (P04821 50-136, looked up): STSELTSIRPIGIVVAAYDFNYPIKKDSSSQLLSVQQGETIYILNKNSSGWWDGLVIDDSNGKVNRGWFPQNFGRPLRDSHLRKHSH

T7: Bud14, P27637
T7 sequence (P27637 247-328, looked up): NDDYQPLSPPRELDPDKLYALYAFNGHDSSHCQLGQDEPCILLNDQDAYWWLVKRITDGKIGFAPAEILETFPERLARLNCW

T8: Cyk3, Q07533
T8 sequence (Q07533 1-83, looked up): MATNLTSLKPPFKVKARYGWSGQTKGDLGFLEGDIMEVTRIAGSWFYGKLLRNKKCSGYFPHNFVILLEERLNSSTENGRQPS

T9: Myo5, Q04439
T9 sequence (Q04439 1072-1160, looked up): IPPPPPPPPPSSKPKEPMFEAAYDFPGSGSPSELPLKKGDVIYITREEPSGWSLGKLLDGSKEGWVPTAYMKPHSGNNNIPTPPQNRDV

T10: Lsb4, P32793
T10 sequence (P32793 402-468, looked up): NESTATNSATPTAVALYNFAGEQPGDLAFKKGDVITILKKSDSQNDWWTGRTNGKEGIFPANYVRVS

T11: Hse1, P38753
T11 sequence (P38753 208-285, looked up): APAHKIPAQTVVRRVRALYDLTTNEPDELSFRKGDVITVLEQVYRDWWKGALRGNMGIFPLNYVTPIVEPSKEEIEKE

T12: Sla1-2, P32790
T12 sequence (P32790 60-140, looked up): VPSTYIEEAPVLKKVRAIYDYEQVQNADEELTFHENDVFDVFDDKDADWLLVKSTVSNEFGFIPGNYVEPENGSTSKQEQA

T13: Lsb3, P43603
T13 sequence (P43603 385-451, looked up): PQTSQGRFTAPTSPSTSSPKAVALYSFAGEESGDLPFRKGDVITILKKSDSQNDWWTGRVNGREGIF

T14: Pin3, Q06449
T14 sequence (Q06449 53-122, looked up): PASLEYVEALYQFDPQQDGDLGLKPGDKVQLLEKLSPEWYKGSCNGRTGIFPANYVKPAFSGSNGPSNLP

T15: Boi1, P38041
T15 sequence (P38041 1-86, looked up): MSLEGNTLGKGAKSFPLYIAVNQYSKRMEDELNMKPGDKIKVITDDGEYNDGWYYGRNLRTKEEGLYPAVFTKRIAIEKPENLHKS

T16: Fus1, P11710
T16 sequence (P11710 432-512, looked up): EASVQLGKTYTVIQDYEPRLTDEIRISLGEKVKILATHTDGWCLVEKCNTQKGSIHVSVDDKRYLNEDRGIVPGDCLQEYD

T17: Bzz1-2, P38822
T17 sequence (P38822 568-633, looked up): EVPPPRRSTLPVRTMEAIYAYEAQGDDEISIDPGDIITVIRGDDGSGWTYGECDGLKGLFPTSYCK

T18: Hof1, Q05080
T18 sequence (Q05080 590-669, looked up): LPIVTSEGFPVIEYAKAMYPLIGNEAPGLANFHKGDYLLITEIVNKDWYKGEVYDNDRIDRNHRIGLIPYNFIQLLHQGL

T19: Bzz1-1, P38822
T19 sequence (P38822 478-572, looked up): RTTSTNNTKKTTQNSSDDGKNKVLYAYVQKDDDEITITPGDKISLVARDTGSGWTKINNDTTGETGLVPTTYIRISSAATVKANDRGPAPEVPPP

T20: Nbp2, Q12163
T20 sequence (Q12163 103-180, looked up): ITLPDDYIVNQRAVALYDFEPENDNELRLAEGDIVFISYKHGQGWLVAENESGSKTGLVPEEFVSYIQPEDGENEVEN

T21: Lsb1, P53281
T21 sequence (P53281 45-122, looked up): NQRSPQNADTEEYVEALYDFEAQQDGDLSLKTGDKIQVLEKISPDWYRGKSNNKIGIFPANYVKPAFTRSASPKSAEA


Legend:
Assay in all cases: SPOT array
[1] = molecular target: T1, Abp1, P15891; conditions: median of control spots 935
[2] = molecular target: T2, Pex13, P80667; conditions: median of control spots 1341
[3] = molecular target: T3, Boi2, P39969; conditions: median of control spots 1161
[4] = molecular target: T4, Sla1-3, P32790; conditions: median of control spots 5475
[5] = molecular target: T5, Bbc1, P47068; conditions: median of control spots 796
[6] = molecular target: T6, Cdc25, P04821; conditions: median of control spots 969
[7] = molecular target: T7, Bud14, P27637; conditions: median of control spots 956
[8] = molecular target: Myo3, P36006; conditions: median of control spots 468
[9] = molecular target: T8, Cyk3, Q07533; conditions: median of control spots 1451
[10] = molecular target: T9, Myo5, Q04439; conditions: median of control spots 471
[11] = molecular target: T10, Lsb4, P32793; conditions: median of control spots 397
[12] = molecular target: Bem1-1, P29366; conditions: median of control spots 4282
[13] = molecular target: Bem1-2, P29366; conditions: median of control spots 4347
[14] = molecular target: T11, Hse1, P38753; conditions: median of control spots 1727
[15] = molecular target: T12, Sla1-2, P32790; conditions: median of control spots 712
[16] = molecular target: T13, Lsb3, P43603; conditions: median of control spots 406
[17] = molecular target: Sho1, P40073; conditions: median of control spots 1148
[18] = molecular target: T14, Pin3, Q06449; conditions: median of control spots 2171
[19] = molecular target: GST; conditions: median of control spots 978
[20] = molecular target: Rvs167, P39743; conditions: median of control spots 2707
[21] = molecular target: T15, Boi1, P38041; conditions: median of control spots 1162
[22] = molecular target: T16, Fus1, P11710; conditions: median of control spots 1200
[23] = molecular target: T17, Bzz1-2, P38822; conditions: median of control spots 4538
[24] = molecular target: T18, Hof1, Q05080; conditions: median of control spots 4086
[25] = molecular target: T19, Bzz1-1, P38822; conditions: median of control spots 4446
[26] = molecular target: T20, Nbp2, Q12163; conditions: median of control spots 357
[27] = molecular target: T21, Lsb1, P53281; conditions: median of control spots 388

Sequence of Bem1-1, P29366 (P29366 55-141): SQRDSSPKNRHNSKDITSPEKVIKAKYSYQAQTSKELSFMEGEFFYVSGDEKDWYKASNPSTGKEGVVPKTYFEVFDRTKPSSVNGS
Sequence of Sho1, P40073 (P40073 287-367): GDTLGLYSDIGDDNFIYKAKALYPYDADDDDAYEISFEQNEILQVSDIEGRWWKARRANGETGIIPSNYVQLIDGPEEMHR
Sequence of Bem1-2, P29366 (P29366 139-227): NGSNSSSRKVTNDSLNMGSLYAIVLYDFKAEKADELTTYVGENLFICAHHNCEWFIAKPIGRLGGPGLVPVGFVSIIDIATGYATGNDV
Sequence of Rvs167, P39743 (P39743 419-482): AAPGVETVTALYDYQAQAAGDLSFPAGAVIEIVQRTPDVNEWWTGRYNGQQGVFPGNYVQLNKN

| Binder | SPOT intensity [1] | SPOT intensity [2] | SPOT intensity [3] | SPOT intensity [4] | SPOT intensity [5] | SPOT intensity [6] | SPOT intensity [7] | SPOT intensity [8] | SPOT intensity [9] | SPOT intensity [10] | SPOT intensity [11] | SPOT intensity [12] | SPOT intensity [13] | SPOT intensity [14] | SPOT intensity [15] | SPOT intensity [16] | SPOT intensity [17] | SPOT intensity [18] | SPOT intensity [19] | SPOT intensity [20] | other results |
| --- | --- | --- | --- | --- | --- | --- | --- | --- | --- | --- | --- | --- | --- | --- | --- | --- | --- | --- | --- | --- | --- |
| SSTPTTPERPKRKSG | 22 | 8 | 2 | 0 | 559 | 1 | 0 | 0 | 1 | 0 | 363 | 1 | 0 | 0 | 0 | 442 | 0 | 6 | 2 | 0 | SPOT intensity [21]: 0; SPOT intensity [22]: 0; SPOT intensity [23]: 1; SPOT intensity [24]: 0; SPOT intensity [25]: 1; SPOT intensity [26]: 0; SPOT intensity [27]: 316 |
| EVTPKVPERPSRRKT | 156 | 171 | 2 | 15 | 1070 | 10 | 3 | 0 | 1 | 0 | 317 | 0 | 13 | 245 | 0 | 271 | 23 | 25 | 0 | 129 | SPOT intensity [21]: 0; SPOT intensity [22]: 0; SPOT intensity [23]: 1; SPOT intensity [24]: 28; SPOT intensity [25]: 1; SPOT intensity [26]: 0; SPOT intensity [27]: 824 |
| AERNYAPRLPRRETS | 50 | 76 | 0 | 5 | 18 | 11 | 12 | 0 | 0 | 0 | 137 | 1 | 0 | 4 | 0 | 371 | 32 | 18 | 0 | 306 | SPOT intensity [21]: 0; SPOT intensity [22]: 0; SPOT intensity [23]: 1; SPOT intensity [24]: 0; SPOT intensity [25]: 0; SPOT intensity [26]: 0; SPOT intensity [27]: 352 |
| QRIRKIPGIPLMSVG | 110 | 90 | 0 | 8 | 16 | 2 | 9 | 28 | 2 | 7 | 24 | 0 | 0 | 7 | 4 | 51 | 42 | 71 | 0 | 156 | SPOT intensity [21]: 0; SPOT intensity [22]: 6; SPOT intensity [23]: 13; SPOT intensity [24]: 13; SPOT intensity [25]: 0; SPOT intensity [26]: 5; SPOT intensity [27]: 78 |
